Measured values taken from patent publication US11911450B2, “Method for managing pain” (UNIVERSITY OF MIAMI, priority 2017, dated 2024).

How the values were obtained:
[1] = system: intracellular calcium release in NBL cells; test: ATP-stimulated calcium release in NBL cells (Fura2 imaging); format: cell-based, human; conditions: 1 μM ATP, vs empty vector
Method: Pharmacodynamics—Bioassay of Calcium Release: Fifteen mm glass coverslips (cat #72228 Electron Microscopy Sciences, Hatfield, PA) were coated with poly-D-Lysine (Sigma) followed by Laminin and 1×10^5 cells were seeded on each coverslip. Twenty-four hrs later, cells were transfected with AAV2-ITR, AAV2-V5-Car10, or AAV2-V5-CA10 vectors as previously described. In embodiments wherein AAV2 is not employed, other expression vectors (including viral vectors) are used. Fura-2AM (cat #F1221 ThermoFisher scientific, Waltham, MA) was dissolved in DMSO (50 μg in 50 μl) and 1% pluronic acid-127 (cat #P2443 Sigma, St Louis, MO) as the stock solution. Forty eight hrs after seeding, cells were loaded with 2 μM Fura-2AM dye for 45 min at room temperature in the dark in a standard Ca+2 buffer solution containing: 125 mM NaCl, 2 mM MgCl, 4.5 mM KCl, 10 glucose, 20 mM HEPES, 2 mM CaCl2, pH 7.4.25. Following dye loading, coverslips were washed with Ca^+2 buffer solution. […] Regions of interest over the field of view were selected and the mean pixels intensity at each frame was measured. Data was plotted as ratio fluorescence intensity versus time and subsequently converted to a relative scale. […]

ITPR1 = ITPR1 (Homo sapiens, UniProt Q14643); test: NGF-induced intracellular calcium release / ITPR1 activation in NBL cells; format: cell-based; parameters: endogenous in cells
Chain of ITPR1 (Q14643 whole entry): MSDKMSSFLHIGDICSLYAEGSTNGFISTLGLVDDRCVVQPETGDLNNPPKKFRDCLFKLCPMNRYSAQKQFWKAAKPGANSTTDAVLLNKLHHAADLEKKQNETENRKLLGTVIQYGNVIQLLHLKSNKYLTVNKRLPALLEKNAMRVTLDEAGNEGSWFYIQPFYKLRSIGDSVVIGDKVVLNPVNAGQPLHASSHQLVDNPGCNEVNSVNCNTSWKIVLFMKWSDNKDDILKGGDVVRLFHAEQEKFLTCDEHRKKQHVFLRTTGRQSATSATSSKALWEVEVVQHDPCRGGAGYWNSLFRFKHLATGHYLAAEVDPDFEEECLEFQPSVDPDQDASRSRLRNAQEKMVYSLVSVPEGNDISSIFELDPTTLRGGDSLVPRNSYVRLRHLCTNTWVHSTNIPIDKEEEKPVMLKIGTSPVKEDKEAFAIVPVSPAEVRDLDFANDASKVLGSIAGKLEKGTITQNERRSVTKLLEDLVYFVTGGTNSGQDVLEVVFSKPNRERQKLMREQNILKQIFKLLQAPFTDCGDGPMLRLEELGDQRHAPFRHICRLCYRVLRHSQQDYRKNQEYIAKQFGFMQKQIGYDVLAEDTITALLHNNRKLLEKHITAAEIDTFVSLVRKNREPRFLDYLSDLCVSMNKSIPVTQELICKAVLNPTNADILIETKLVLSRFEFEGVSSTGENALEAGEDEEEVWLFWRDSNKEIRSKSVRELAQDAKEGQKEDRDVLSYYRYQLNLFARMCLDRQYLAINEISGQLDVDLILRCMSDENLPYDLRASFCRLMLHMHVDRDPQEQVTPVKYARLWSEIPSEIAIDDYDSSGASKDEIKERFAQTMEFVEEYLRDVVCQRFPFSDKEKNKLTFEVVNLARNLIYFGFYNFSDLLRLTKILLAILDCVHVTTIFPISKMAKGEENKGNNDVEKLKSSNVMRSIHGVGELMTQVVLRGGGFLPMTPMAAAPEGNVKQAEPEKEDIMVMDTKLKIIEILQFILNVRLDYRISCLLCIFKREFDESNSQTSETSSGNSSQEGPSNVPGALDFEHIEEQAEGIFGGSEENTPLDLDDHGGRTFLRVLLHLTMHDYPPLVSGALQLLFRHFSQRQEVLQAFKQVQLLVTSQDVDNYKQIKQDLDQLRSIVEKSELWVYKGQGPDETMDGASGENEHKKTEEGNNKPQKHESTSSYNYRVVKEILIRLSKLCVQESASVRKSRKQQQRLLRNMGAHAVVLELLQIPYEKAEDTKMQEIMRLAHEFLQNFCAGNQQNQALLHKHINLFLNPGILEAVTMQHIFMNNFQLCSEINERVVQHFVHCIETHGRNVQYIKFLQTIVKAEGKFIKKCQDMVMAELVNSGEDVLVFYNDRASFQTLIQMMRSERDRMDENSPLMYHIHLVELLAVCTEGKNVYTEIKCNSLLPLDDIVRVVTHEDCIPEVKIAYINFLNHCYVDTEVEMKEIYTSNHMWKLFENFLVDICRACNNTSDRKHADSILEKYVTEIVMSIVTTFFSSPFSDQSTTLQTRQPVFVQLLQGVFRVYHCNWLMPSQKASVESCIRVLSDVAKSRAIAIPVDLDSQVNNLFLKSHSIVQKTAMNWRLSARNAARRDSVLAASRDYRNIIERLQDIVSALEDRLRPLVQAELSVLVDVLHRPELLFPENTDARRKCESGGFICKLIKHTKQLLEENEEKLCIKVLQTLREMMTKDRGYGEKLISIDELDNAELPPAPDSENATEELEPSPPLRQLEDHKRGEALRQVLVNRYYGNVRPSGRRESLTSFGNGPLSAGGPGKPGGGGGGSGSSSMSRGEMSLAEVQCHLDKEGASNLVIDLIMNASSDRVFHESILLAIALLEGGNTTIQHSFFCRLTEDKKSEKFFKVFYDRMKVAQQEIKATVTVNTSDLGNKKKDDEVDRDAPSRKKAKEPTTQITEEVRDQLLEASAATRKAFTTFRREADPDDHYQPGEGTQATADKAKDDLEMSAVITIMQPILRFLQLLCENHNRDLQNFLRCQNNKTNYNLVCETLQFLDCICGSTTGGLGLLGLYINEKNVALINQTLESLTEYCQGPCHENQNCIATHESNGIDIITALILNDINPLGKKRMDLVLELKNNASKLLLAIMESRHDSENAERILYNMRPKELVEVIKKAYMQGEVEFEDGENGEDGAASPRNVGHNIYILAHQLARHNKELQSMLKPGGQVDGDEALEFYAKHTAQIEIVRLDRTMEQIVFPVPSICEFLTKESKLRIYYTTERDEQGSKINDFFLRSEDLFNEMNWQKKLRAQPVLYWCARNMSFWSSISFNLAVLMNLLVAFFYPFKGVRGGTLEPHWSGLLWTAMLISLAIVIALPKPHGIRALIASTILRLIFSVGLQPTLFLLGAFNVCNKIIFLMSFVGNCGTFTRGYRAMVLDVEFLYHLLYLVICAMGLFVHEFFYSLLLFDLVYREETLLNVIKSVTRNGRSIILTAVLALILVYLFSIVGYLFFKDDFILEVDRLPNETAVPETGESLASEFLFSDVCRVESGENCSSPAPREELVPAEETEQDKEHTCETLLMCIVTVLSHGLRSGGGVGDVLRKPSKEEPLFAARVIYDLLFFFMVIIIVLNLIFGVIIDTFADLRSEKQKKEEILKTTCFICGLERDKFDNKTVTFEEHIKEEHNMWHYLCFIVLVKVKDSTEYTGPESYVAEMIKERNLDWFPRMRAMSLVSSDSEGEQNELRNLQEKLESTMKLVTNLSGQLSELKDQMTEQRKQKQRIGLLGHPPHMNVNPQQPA

B1: CA8-201: wildtype full length CA8 transcript/peptide (protein, UniProt P35219 1-290, looked up)
chain: MADLSFIEDTVAFPEKEEDEEEEEEGVEWGYEEGVEWGLVFPDANGEYQSPINLNSREARYDPSLLDVRLSPNYVVCRDCEVTNDGHTIQVILKSKSVLSGGPLPQGHEFELYEVRFHWGRENQRGSEHTVNFKAFPMELHLIHWNSTLFGSIDEAVGKPHGIAIIALFVQIGKEHVGLKAVTEILQDIQYKGKSKTIPCFNPNTLLPDPLLRDYWVYEGSLTIPPCSEGVTWILFRYPLTISQLQIEEFRRLRTHVKGAELVEGCDGILGDNFRPTQPLSDRVIRAAFQ
modifications: full-length V5 tag
notes: wildtype full length CA8 transcript/peptide
[1]
  ATP-stimulated calcium release: able to inhibit Ca^2+ release
ITPR1
  NGF-induced ITPR1 activation (pITPR1): inhibits NGF-induced ITPR1 activation (pITPR1)
ITPR1; NBL cells
  NGF-induced intracellular calcium release: nearly completely
